Test results from IntAct's records for PubMed 31515488.

B1: Isoform 1 of Cell division control protein 45 homolog (Homo sapiens), O75419-1 (parent)
chain: MFVSDFRKEFYEVVQSQRVLLFVASDVDALCACKILQALFQCDHVQYTLVPVSGWQELETAFLEHKEQFHYFILINCGANVDLLDILQPDEDTIFFVCDTHRPVNVVNVYNDTQIKLLIKQDDDLEVPAYEDIFRDEEEDEEHSGNDSDGSEPSEKRTRLEEEIVEQTMRRRQRREWEARRRDILFDYEQYEYHGTSSAMVMFELAWMLSKDLNDMLWWAIVGLTDQWVQDKITQMKYVTDVGVLQRHVSRHNHRNEDEENTLSVDCTRISFEYDLRLVLYQHWSLHDSLCNTSYTAARFKLWSVHGQKRLQEFLADMGLPLKQVKQKFQAMDISLKENLREMIEESANKFGMKDMRVQTFSIHFGFKHKFLASDVVFATMSLMESPEKDGSGTDHFIQALDSLSRSNLDKLYHGLELAKKQLRATQQTIASCLCTNLVISQGPFLYCSLMEGTPDVMLFSRPASLSLLSKHLLKSFVCSTKNRRCKLLPLVMAAPLSMEHGTVTVVGIPPETDSSDRKNFFGRAFEKAAESTSSRMLHNHFDLSVIELKAEDRSKFLDALISLLS
partner: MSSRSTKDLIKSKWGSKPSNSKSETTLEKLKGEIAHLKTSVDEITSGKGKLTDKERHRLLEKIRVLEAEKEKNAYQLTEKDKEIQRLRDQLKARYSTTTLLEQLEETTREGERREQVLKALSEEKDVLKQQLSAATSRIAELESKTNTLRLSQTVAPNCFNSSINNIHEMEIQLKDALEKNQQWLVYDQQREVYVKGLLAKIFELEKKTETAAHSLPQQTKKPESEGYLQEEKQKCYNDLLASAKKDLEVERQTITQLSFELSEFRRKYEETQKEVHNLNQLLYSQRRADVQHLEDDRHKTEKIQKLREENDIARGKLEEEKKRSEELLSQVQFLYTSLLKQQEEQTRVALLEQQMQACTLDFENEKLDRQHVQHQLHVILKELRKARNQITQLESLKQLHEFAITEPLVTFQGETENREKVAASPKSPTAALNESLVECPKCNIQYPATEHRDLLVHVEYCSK
B2: NADPH-dependent diflavin oxidoreductase 1 (Homo sapiens), Q9UHB4 (parent)
chain: MPSPQLLVLFGSQTGTAQDVSERLGREARRRRLGCRVQALDSYPVVNLINEPLVIFVCATTGQGDPPDNMKNFWRFIFRKNLPSTALCQMDFAVLGLGDSSYAKFNFVAKKLHRRLLQLGGSALLPVCLGDDQHELGPDAAVDPWLRDLWDRVLGLYPPPPGLTEIPPGVPLPSKFTLLFLQEAPSTGSEGQRVAHPGSQEPPSESKPFLAPMISNQRVTGPSHFQDVRLIEFDILGSGISFAAGDVVLIQPSNSAAHVQRFCQVLGLDPDQLFMLQPREPDVSSPTRLPQPCSMRHLVSHYLDIASVPRRSFFELLACLSLHELEREKLLEFSSAQGQEELFEYCNRPRRTILEVLCDFPHTAAAIPPDYLLDLIPVIRPRAFSIASSLLTHPSRLQILVAVVQFQTRLKEPRRGLCSSWLASLDPGQGPVRVPLWVRPGSLAFPETPDTPVIMVGPGTGVAPFRAAIQERVAQGQTGNFLFFGCRWRDQDFYWEAEWQELEKRDCLTLIPAFSREQEQKVYVQHRLRELGSLVWELLDRQGAYFYLAGNAKSMPADVSEALMSIFQEEGGLCSPDAAAYLARLQQTRRFQTETWA
partner: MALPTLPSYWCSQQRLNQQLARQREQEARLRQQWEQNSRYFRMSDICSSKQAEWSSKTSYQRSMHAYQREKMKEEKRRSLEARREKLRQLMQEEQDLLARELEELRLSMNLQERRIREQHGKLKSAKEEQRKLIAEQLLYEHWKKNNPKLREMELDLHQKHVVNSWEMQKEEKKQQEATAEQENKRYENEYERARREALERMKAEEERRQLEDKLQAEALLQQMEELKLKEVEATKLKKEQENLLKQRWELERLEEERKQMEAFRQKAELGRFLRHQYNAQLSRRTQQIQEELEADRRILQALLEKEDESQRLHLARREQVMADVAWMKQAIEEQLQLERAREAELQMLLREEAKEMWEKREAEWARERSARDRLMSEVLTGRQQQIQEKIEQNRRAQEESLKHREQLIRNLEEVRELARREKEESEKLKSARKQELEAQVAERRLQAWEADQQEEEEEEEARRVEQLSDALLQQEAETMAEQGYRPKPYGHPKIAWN
B3: Bcl-2-interacting killer (Homo sapiens), Q13323 (parent)
chain: MSEVRPLSRDILMETLLYEQLLEPPTMEVLGMTDSEEDLDPMEDFDSLECMEGSDALALRLACIGDEMDVSLRAPRLAQLSEVAMHSLGLAFIYDQTEDIRDVLRSFMDGFTTLKENIMRFWRSPNPGSWVSCEQVLLALLLLLALLLPLLSGGLHLLLK
partner: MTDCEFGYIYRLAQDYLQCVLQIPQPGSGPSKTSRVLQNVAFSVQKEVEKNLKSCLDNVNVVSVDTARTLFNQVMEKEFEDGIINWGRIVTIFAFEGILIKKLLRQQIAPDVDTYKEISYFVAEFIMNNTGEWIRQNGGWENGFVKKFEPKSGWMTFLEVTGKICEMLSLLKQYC
B4: Splicing factor 45 (Homo sapiens), Q96I25 (parent)
chain: MSLYDDLGVETSDSKTEGWSKNFKLLQSQLQVKKAALTQAKSQRTKQSTVLAPVIDLKRGGSSDDRQIVDTPPHVAAGLKDPVPSGFSAGEVLIPLADEYDPMFPNDYEKVVKRQREERQRQRELERQKEIEEREKRRKDRHEASGFARRPDPDSDEDEDYERERRKRSMGGAAIAPPTSLVEKDKELPRDFPYEEDSRPRSQSSKAAIPPPVYEEQDRPRSPTGPSNSFLANMGGTVAHKIMQKYGFREGQGLGKHEQGLSTALSVEKTSKRGGKIIVGDATEKDASKKSDSNPLTEILKCPTKVVLLRNMVGAGEVDEDLEVETKEECEKYGKVGKCVIFEIPGAPDDEAVRIFLEFERVESAIKAVVDLNGRYFGGRVVKACFYNLDKFRVLDLAEQV
partner: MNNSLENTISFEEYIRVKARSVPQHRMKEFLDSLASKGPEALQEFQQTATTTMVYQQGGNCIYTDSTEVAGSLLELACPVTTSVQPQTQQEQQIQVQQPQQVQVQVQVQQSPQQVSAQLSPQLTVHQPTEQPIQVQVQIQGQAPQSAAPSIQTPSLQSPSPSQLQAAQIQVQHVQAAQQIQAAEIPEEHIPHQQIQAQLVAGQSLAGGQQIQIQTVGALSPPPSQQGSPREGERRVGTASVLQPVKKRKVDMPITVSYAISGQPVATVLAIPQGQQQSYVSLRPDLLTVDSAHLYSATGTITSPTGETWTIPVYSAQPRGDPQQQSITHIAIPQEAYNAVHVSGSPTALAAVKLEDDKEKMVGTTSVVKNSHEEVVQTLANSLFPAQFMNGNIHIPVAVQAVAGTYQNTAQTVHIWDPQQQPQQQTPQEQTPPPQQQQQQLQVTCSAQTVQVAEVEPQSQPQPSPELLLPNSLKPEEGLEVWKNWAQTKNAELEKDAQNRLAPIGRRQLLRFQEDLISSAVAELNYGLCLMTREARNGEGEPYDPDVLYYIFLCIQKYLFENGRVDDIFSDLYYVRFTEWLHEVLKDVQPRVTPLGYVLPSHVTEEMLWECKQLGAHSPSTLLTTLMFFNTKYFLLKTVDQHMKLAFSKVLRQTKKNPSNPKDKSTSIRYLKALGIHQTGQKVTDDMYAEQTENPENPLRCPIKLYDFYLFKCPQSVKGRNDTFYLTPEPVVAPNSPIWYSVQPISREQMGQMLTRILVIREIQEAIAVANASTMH
B5: Scaffold protein ILK (Homo sapiens), Q13418 (parent)
chain: MDDIFTQCREGNAVAVRLWLDNTENDLNQGDDHGFSPLHWACREGRSAVVEMLIMRGARINVMNRGDDTPLHLAASHGHRDIVQKLLQYKADINAVNEHGNVPLHYACFWGQDQVAEDLVANGALVSICNKYGEMPVDKAKAPLRELLRERAEKMGQNLNRIPYKDTFWKGTTRTRPRNGTLNKHSGIDFKQLNFLTKLNENHSGELWKGRWQGNDIVVKVLKVRDWSTRKSRDFNEECPRLRIFSHPNVLPVLGACQSPPAPHPTLITHWMPYGSLYNVLHEGTNFVVDQSQAVKFALDMARGMAFLHTLEPLIPRHALNSRSVMIDEDMTARISMADVKFSFQCPGRMYAPAWVAPEALQKKPEDTNRRSADMWSFAVLLWELVTREVPFADLSNMEIGMKVALEGLRPTIPPGISPHVCKLMKICMNEDPAKRPKFDMIVPILEKMQDK
partner: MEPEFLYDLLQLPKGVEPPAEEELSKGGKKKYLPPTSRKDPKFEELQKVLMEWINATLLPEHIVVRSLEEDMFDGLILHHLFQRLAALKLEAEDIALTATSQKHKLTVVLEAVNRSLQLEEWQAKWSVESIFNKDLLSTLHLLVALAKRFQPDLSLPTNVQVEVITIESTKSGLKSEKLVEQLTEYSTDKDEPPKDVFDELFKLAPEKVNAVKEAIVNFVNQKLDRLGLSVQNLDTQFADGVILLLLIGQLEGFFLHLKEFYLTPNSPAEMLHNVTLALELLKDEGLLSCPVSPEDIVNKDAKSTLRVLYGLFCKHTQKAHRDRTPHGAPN
B6: Keratin, type II cytoskeletal 2 epidermal (Homo sapiens), P35908 (parent)
chain: MSCQISCKSRGRGGGGGGFRGFSSGSAVVSGGSRRSTSSFSCLSRHGGGGGGFGGGGFGSRSLVGLGGTKSISISVAGGGGGFGAAGGFGGRGGGFGGGSSFGGGSGFSGGGFGGGGFGGGRFGGFGGPGGVGGLGGPGGFGPGGYPGGIHEVSVNQSLLQPLNVKVDPEIQNVKAQEREQIKTLNNKFASFIDKVRFLEQQNQVLQTKWELLQQMNVGTRPINLEPIFQGYIDSLKRYLDGLTAERTSQNSELNNMQDLVEDYKKKYEDEINKRTAAENDFVTLKKDVDNAYMIKVELQSKVDLLNQEIEFLKVLYDAEISQIHQSVTDTNVILSMDNSRNLDLDSIIAEVKAQYEEIAQRSKEEAEALYHSKYEELQVTVGRHGDSLKEIKIEISELNRVIQRLQGEIAHVKKQCKNVQDAIADAEQRGEHALKDARNKLNDLEEALQQAKEDLARLLRDYQELMNVKLALDVEIATYRKLLEGEECRMSGDLSSNVTVSVTSSTISSNVASKAAFGGSGGRGSSSGGGYSSGSSSYGSGGRQSGSRGGSGGGGSISGGGYGSGGGSGGRYGSGGGSKGGSISGGGYGSGGGKHSSGGGSRGGSSSGGGYGSGGGGSSSVKGSSGEAFGSSVTFSFR
partner: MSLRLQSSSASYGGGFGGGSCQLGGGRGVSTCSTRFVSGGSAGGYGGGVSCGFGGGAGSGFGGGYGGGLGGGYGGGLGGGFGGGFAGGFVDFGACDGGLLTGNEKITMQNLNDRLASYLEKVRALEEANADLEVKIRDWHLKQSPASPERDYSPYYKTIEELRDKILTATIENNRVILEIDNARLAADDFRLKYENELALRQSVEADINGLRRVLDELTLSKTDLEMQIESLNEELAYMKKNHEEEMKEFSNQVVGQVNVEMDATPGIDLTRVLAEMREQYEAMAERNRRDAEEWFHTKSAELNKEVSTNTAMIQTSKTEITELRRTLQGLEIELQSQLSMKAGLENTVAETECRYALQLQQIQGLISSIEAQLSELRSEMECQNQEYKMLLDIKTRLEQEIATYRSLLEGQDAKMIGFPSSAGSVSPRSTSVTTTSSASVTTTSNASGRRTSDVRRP

Variants of: B1
Conditions: with cep55_human CEP55, Q53EZ4

Q: G150E was tested. Which “effect of a mutation on the interaction” value did it give?
A: The value was “with no effect”.

Variants of: B2
Conditions: with tchp_human TCHP

Q: With P281L as the variant, how does the “effect of a mutation on the interaction” value read?
A: The value was “disrupting interaction strength”.

Variants of: B3
Conditions: with BCL2A1, Q16548

Q: For D69E, which “effect of a mutation on the interaction” value is on record?
A: Its value is “with no effect”.

Variants of: B4
Conditions: with qric1_human QRICH1, Q2TAL8

Q: How did the “effect of a mutation on the interaction” value turn out when T224I was run?
A: Its value is “with no effect”.

Variants of: B5
Conditions: with parvg_human PARVG

Q: With V340G as the variant, how does the “effect of a mutation on the interaction” value read?
A: Its value is “with no effect”.

Variants of: B6
Conditions: with KRT13, P13646

Q: Which “effect of a mutation on the interaction” value does the source give for A517G here?
A: The value was “with no effect”.
